Molecular target: the molecule itself
Assay: SEC-MALS; 500 uL sample at 1 mg/mL on Superdex 75 10/30 in 50 mM Tris-HCl, 0.15 M NaCl, pH 8.0, online triple-angle static light scattering (MiniDAWN Treos)

B1: POZ/BTB domain of KCTD6 (domain or fragment, human, UniProt Q8NC69 10-110, looked up)
chain: MTDPVTLNVGGHLYTTSLTTLTRYPDSMLGAMFGGDFPTARDPQGNYFIDRDGPLFRYVLNFLRTSELTLPLDFKEFDLLRKEADFYQIEPLIQCLNDPKP
notes: KCTD6, human, POZ/BTB domain, residues 10-110 of the protein of 237 residues (UniProt Q8NC69); cDNA NM_153331; also called KCTD6BTB; source: E. coli BL21(DE3) Star, purified
- stoichiometry N: 4

— paper PMC3838848 (BioMed Research International, 2013)
